# Results from patent US20180085455A1 (ISU ABXIS, published 2018).
# Positions count from the first letter of the chain named.
# B1: 472P (antibody, V domains shown)
# VH: EVQLLESGGGLVQPGGSLRLSCAASGFTFSDYDMSWVRQAPGKGLEWVSGISYDGGNTYYADSVKGRFTISRDNSKNTLYLQMNSLRAEDTAVYYCARDPSWCLQDLCYYADGMDVWGQGTLVTVSS
# VL: QSVLTQPPSASGTPGQRVTISCSGSSSNIGSNSVSWYQQLPGTAPKLLIYADSNRPSGVPDRFSGSKSGTSASLAISGLRSEDEADYYCGSWDYSLSGYVFGGGTKLTVLG
# notes: IgG1 (Selexis 085 vector, CHO); also called anti-ErbB3 lead antibody 472P
# B2: 472S2 (antibody, V domains shown)
# VH: B1 VH with D31W, M34L, S35A
# VL: B1 VL
# notes: IgG1 (Selexis 085 vector, CHO)
# B3: 472M1 (antibody, V domains shown)
# VH: B1 VH with D31W, M34L
# VL: B1 VL
# notes: as for B2
# B4: 442P (antibody, V domains shown)
# VH: EVQLLESGGGLVQPGGSLRLSCAASGFTFSDYDMSWVRQAPGKGLEWVSSIYPDSGSTYYADSVQGRFTISRDNSKNTLYLQMNSLRAEDTAVYYCAKDLHMGPEGPFDYWGQGTLVTVSS
# VL: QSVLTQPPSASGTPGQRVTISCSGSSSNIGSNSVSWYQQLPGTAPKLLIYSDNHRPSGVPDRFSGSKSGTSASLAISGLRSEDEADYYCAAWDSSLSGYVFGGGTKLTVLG
# notes: as for B2
# B5: 442S1 (antibody, V domains shown)
# VH: B4 VH with S50T, Y52D, P53L, T58I
# VL: B1 VL with A51S, S53N, N54H, G90Q, S91G, Y94T, Y99H
# notes: as for B2
# B6: 442M6 (antibody, V domains shown)
# VH: B4 VH with Y52E, Y59D, L100R, G103W
# VL: B1 VL with V34G, S53N, N54W, G90A, S91A, Y94S
# notes: as for B2
# B7: 442S5 (antibody, V domains shown)
# VH: B4 VH with S50I, Y52E, T58I
# VL: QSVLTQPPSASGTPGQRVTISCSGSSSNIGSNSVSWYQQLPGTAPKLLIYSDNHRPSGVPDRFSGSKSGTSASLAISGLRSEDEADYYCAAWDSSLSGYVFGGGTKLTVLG
# notes: as for B2
# B8: 451P (antibody, V domains shown)
# VH: EVQLLESGGGLVQPGGSLRLSCAASGFTFSDYDMSWVRQAPGKGLEWVSAIYYDSGSIYYADSAKGRFTISRDNSKNTLYLQMNSLRAEDTAVYYCAKDRLFVSDSTFDYWGQGTLVTVSS
# VL: B1 VL with S26P, S31N, S35T, A51Y, N54H, Y94A, S97N
# notes: IgG1 (Selexis 085 vector, CHO); also called anti-ErbB3 lead antibody 451P
# B9: 451M3 (antibody, V domains shown)
# VH: B8 VH with D31H, V103A
# VL: B1 VL with S26P, S31N, S35T, A51Y, N54H, Y94A, S97N
# notes: as for B2
# B10: 472S3 (antibody, V domains shown)
# VH: B1 VH with D31W
# VL: B1 VL
# notes: as for B2
# B11: 451M7 (antibody, V domains shown)
# VH: B8 VH with D31Y, V103E
# VL: B1 VL with S26P, S31N, S35T, A51Y, N54H, Y94A, S97N
# notes: as for B2
# B12: 451M6 (antibody, V domains shown)
# VH: B8 VH with D31H, V103E
# VL: B1 VL with S26P, S31N, S35T, A51Y, N54H, Y94A, S97N
# notes: as for B2
# B13: 472S4 (antibody, V domains shown)
# VH: B1 VH with D31W, M34I, S35A
# VL: B1 VL
# notes: as for B2
# B14: 472S1 (antibody, V domains shown)
# VH: B1 VH with D31W, S35T
# VL: B1 VL
# notes: as for B2
# B15: 451M1 (antibody, V domains shown)
# VH: B8 VH with V103M
# VL: B1 VL with S26P, S31N, S35T, A51Y, N54H, Y94A, S97N
# notes: as for B2
# B16: 451M4 (antibody, V domains shown)
# VH: B8 VH with D31Y, V103A
# VL: B1 VL with S26P, S31N, S35T, A51Y, N54H, Y94A, S97N
# notes: as for B2
# B17: 451M2 (antibody, V domains shown)
# VH: B8 VH with V103A
# VL: B1 VL with S26P, S31N, S35T, A51Y, N54H, Y94A, S97N
# notes: as for B2
# B18: 451M5 (antibody, V domains shown)
# VH: B8 VH with V103E
# VL: B1 VL with S26P, S31N, S35T, A51Y, N54H, Y94A, S97N
# notes: as for B2
# B19: 442M7 (antibody, V domains shown)
# VH: B4 VH with S50T, Y52E, G66S
# VL: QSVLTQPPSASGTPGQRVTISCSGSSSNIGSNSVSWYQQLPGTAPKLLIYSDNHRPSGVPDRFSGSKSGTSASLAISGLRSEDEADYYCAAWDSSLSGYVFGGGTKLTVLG
# notes: as for B2
# B20: 442S2 (antibody, V domains shown)
# VH: B4 VH with Y59D
# VL: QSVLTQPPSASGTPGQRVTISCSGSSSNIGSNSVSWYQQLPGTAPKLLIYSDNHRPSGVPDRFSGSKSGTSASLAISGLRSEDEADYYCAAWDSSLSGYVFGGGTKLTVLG
# notes: as for B2
# B21: 442M5 (antibody, V domains shown)
# VH: B4 VH with S50T, Y52D, P53L, T58I
# VL: B1 VL with A51S, S53N, N54H, G90H, S91A, Y94S, S97W, Y99D
# notes: as for B2
# B22: 442M3 (antibody, V domains shown)
# VH: B4 VH with L100R, G103W
# VL: B1 VL with V34G, S53N, N54W, G90A, S91A, Y94S
# notes: as for B2
# B23: 442S10 (antibody, V domains shown)
# VH: B4 VH with L100R, G103W
# VL: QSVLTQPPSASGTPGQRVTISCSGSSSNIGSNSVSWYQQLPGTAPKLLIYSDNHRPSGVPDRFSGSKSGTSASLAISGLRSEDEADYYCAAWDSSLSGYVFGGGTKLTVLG
# notes: as for B2
# B24: 442S4 (antibody, V domains shown)
# VH: B4 VH with Y52E, S55F, T58S, Q65R
# VL: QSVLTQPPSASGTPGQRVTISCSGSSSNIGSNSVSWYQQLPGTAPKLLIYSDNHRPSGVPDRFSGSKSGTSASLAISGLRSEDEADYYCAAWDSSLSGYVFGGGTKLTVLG
# notes: as for B2
# B25: 442M4 (antibody, V domains shown)
# VH: B4 VH with S50T, Y52D, P53L, T58I
# VL: B1 VL with A51S, S53N, N54H, G90V, S91G, Y94S, S97Y, Y99H
# notes: as for B2
# B26: 442M11 (antibody, V domains shown)
# VH: B4 VH with S50T, Y52E, S55Y, Y59L
# VL: B1 VL with A51S, S53N, N54H, G90H, S91A, Y94S, Y99D, V100F
# notes: as for B2
# B27: 442S6 (antibody, V domains shown)
# VH: B4 VH with Y59D, L100R, G103W
# VL: B1 VL with V34G, S53N, N54W, G90A, S91A, Y94S
# notes: as for B2
# B28: 442M10 (antibody, V domains shown)
# VH: B4 VH with Y59D, G103W
# VL: B1 VL with S53N, N54F, G90A, S91A, Y94S
# notes: as for B2
# B29: 442S9 (antibody, V domains shown)
# VH: B4 VH with L100R, G103W
# VL: B1 VL with V34G, S53N, N54H, G90A, S91A, Y94S
# notes: as for B2
# B30: 442M8 (antibody, V domains shown)
# VH: B4 VH
# VL: B1 VL with A51S, S53N, N54H, G90H, S91A, Y94S, S97Y, G98V, Y99D
# notes: as for B2
# Molecular target: ErbB3 on cancer cells (UniProt P21860 20-1342, limits assumed)
# Assay: cell-based or functional assay
"Inhibition of ErbB3 phosphorylation, IC50 (HRG-stimulated MCF7 cells)","Inhibition of Akt phosphorylation, IC50 (HRG-stimulated MCF7 cells)",Binder
1.45 nM,,B1
0.148 nM,0.195 nM,B2
0.276 nM,0.246 nM,B3
1.05 nM,,B4
0.222 nM,0.239 nM,B5
0.271 nM,0.304 nM,B6
0.0854 nM,0.167 nM,B7

# Molecular target: T1, recombinant human ErbB3 protein (R&D systems) (human, UniProt P21860 20-643)
# T1 construct: Bought recombinant protein; also called HER3
# Assay: BLI (Octet QK384), human ErbB3 immobilized on AR2G sensor, IgG at 12.5-50 nM
# Protocol: After activation of carboxyl groups in 20 mM of 1-ethyl-3-(3-dimethylaminopropyl)carbodiimide hydrochloride (EDC) and 40 mM of N-hydroxysulfosuccinimide (sulfo-NHS) solution on an AR2G sensor (ForteBio), 10 μg/mL of human ErbB3 protein solution diluted with 10 mM of sodium acetate (pH 4.0) (ForteBio) was added to immobilize human ErbB3 protein onto the AR2G sensor. The AR2G sensor to which the human ErbB3 protein was immobilized and was treated with 1 M of ethanolamine (ForteBio) to inactivate the remaining unreacted carboxyl groups.
Kd,koff,kon,Binder
0.284 nM,0.000508 s⁻¹,1.79e+06 M⁻¹ s⁻¹,B1
0.0535 nM,6.33e-05 s⁻¹,1.18e+06 M⁻¹ s⁻¹,B8
< 0.001 nM,2.3e-07 s⁻¹,1.87e+06 M⁻¹ s⁻¹,B9
< 0.001 nM,1.43e-07 s⁻¹,522000 M⁻¹ s⁻¹,B10
0.00492 nM,6.63e-06 s⁻¹,1.35e+06 M⁻¹ s⁻¹,B11
0.00347 nM,4.17e-06 s⁻¹,1.2e+06 M⁻¹ s⁻¹,B12
< 0.001 nM,< 1e-07 s⁻¹,1.07e+06 M⁻¹ s⁻¹,B2
0.0125 nM,1.74e-05 s⁻¹,1.39e+06 M⁻¹ s⁻¹,B3
0.00941 nM,1.09e-05 s⁻¹,1.15e+06 M⁻¹ s⁻¹,B13
< 0.001 nM,3.33e-07 s⁻¹,649000 M⁻¹ s⁻¹,B14
0.0248 nM,3.08e-05 s⁻¹,1.24e+06 M⁻¹ s⁻¹,B15
0.00612 nM,1.23e-05 s⁻¹,2.01e+06 M⁻¹ s⁻¹,B16
0.0126 nM,1.56e-05 s⁻¹,1.24e+06 M⁻¹ s⁻¹,B17
0.0217 nM,3.29e-05 s⁻¹,1.52e+06 M⁻¹ s⁻¹,B18
0.283 nM,0.000352 s⁻¹,1.25e+06 M⁻¹ s⁻¹,B4
0.0291 nM,4.55e-05 s⁻¹,1.56e+06 M⁻¹ s⁻¹,B19
0.0711 nM,8.28e-05 s⁻¹,1.17e+06 M⁻¹ s⁻¹,B20
< 0.001 nM,< 1e-07 s⁻¹,665000 M⁻¹ s⁻¹,B21
< 0.001 nM,3.94e-07 s⁻¹,522000 M⁻¹ s⁻¹,B5
0.0034 nM,2.62e-06 s⁻¹,771000 M⁻¹ s⁻¹,B22
0.114 nM,9.29e-05 s⁻¹,814000 M⁻¹ s⁻¹,B23
0.0371 nM,5.47e-05 s⁻¹,1.48e+06 M⁻¹ s⁻¹,B24
0.0201 nM,1.95e-05 s⁻¹,969000 M⁻¹ s⁻¹,B6
< 0.001 nM,< 1e-07 s⁻¹,573000 M⁻¹ s⁻¹,B25
0.00543 nM,8.09e-06 s⁻¹,1.49e+06 M⁻¹ s⁻¹,B26
< 0.001 nM,< 1e-07 s⁻¹,872000 M⁻¹ s⁻¹,B27
< 0.001 nM,< 1e-07 s⁻¹,471000 M⁻¹ s⁻¹,B28
0.0716 nM,5.87e-05 s⁻¹,821000 M⁻¹ s⁻¹,B29
0.00256 nM,2.23e-06 s⁻¹,870000 M⁻¹ s⁻¹,B30
0.0175 nM,2.74e-05 s⁻¹,1.57e+06 M⁻¹ s⁻¹,B7
